B1: Retinoic acid receptor RXR-alpha (Mus musculus), P28700 (parent)
chain: MDTKHFLPLDFSTQVNSSSLNSPTGRGSMAVPSLHPSLGPGIGSPLGSPGQLHSPISTLSSPINGMGPPFSVISSPMGPHSMSVPTTPTLGFGTGSPQLNSPMNPVSSTEDIKPPLGLNGVLKVPAHPSGNMASFTKHICAICGDRSSGKHYGVYSCEGCKGFFKRTVRKDLTYTCRDNKDCLIDKRQRNRCQYCRYQKCLAMGMKREAVQEERQRGKDRNENEVESTSSANEDMPVEKILEAELAVEPKTETYVEANMGLNPSSPNDPVTNICQAADKQLFTLVEWAKRIPHFSELPLDDQVILLRAGWNELLIASFSHRSIAVKDGILLATGLHVHRNSAHSAGVGAIFDRVLTELVSKMRDMQMDKTELGCLRAIVLFNPDSKGLSNPAEVEALREKVYASLEAYCKHKYPEQPGRFAKLLLRLPALRSIGLKCLEHLFFFKLIGDTPIDTFLMEMLEAPHQAT
partner: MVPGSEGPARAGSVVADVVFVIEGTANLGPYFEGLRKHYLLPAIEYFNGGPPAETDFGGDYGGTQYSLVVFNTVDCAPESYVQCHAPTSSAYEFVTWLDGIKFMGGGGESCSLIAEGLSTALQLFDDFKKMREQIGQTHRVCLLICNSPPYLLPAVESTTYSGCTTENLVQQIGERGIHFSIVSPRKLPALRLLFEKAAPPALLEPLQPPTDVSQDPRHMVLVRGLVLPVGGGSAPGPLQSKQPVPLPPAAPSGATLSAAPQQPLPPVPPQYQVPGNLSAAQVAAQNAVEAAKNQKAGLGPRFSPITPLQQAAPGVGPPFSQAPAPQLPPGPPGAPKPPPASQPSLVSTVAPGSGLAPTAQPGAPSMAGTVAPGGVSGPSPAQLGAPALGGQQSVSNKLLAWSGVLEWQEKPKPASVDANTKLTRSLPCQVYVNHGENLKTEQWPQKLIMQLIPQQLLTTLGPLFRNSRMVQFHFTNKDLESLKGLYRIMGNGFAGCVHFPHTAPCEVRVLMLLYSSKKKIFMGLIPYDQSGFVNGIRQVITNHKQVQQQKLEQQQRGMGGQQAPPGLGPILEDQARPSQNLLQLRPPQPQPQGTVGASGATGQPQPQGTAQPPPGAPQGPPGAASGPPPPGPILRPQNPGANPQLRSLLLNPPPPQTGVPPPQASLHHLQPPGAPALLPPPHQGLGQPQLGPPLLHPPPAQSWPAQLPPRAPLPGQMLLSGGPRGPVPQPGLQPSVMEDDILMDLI

One test covers variants of B1. The conditions noted are these: with med25_human MED25, Q71SY5.
MDTKHFLPLDFSTQVNSSSLNSPTGRGSMAVPSLHPSLGPGIGSPLGSPGQLHSPISTLSSPINGMGPPFSVISSPMGPHSMSVPTTPTLGFGTGSPQLNSPMNPVSSTEDIKPPLGLNGVLKVPAHPSGNMASFTKHICAICGDRSSGKHYGVYSCEGCKGFFKRTVRKDLTYTCRDNKDCLIDKRQRNRCQYCRYQKCLAMGMKREAVQEERQRGKDRNENEVESTSSANEDMPVEKILEAELAVEPKTETYVEANMGLNPSSPNDPVTNICQAADKQLFTLVEWAKRIPHFSELPLDDQVILLRAGWNELLIASFSHRSIAVKDGILLATGLHVHRNSAHSAGVGAIFDRVLTELVSKMRDMQMDKTELGCLRAIVLFNPDSKGLSNPAEVEALREKVYASLEAYCKHKYPEQPGRFAKLLLRLPALRSIGLKCLEHLFFFKLIGDTPIDTFLMEMAEAPHQAT [L460A]: the “effect of a mutation on the interaction” value was “disrupting interaction”.

Turning to MDTKHFLPLDFSTQVNSSSLNSPTGRGSMAVPSLHPSLGPGIGSPLGSPGQLHSPISTLSSPINGMGPPFSVISSPMGPHSMSVPTTPTLGFGTGSPQLNSPMNPVSSTEDIKPPLGLNGVLKVPAHPSGNMASFTKHICAICGDRSSGKHYGVYSCEGCKGFFKRTVRKDLTYTCRDNKDCLIDKRQRNRCQYCRYQKCLAMGMKREAVQEERQRGKDRNENEVESTSSANEDMPVEKILEAELAVEPKTETYVEANMGLNPSSPNDPVTNICQAADKQLFTLVEWAKRIPHFSELPLDDQVILLRAGWNELLIASFSHRSIAVKDGILLATGLHVHRNSAHSAGVGAIFDRVLTELVSKMRDMQMDKTELGCLRAIVLFNPDSKGLSNPAEVEALREKVYASLEAYCKHKYPEQPGRFAKLLLRLPALRSIGLKCLEHLFFFKLIGDTPIDTFLMEALEAPHQAT [M459A], the “effect of a mutation on the interaction” value is reported as “disrupting interaction”.

The variants in another test derive from B1. The conditions noted are these: with med25_human MED25, Q71SY5. This is another data set of the same source.
Turning to MDTKHFLPLDFSTQVNSSSLNSPTGRGSMAVPSLHPSLGPGIGSPLGSPGQLHSPISTLSSPINGMGPPFSVISSPMGPHSMSVPTTPTLGFGTGSPQLNSPMNPVSSTEDIKPPLGLNGVLKVPAHPSGNMASFTKHICAICGDRSSGKHYGVYSCEGCKGFFKRTVRKDLTYTCRDNKDCLIDKRQRNRCQYCRYQKCLAMGMKREAVQEERQRGKDRNENEVESTSSANEDMPVEKILEAELAVEPKTETYVEANMGLNPSSPNDPVTNICQAADKQLFTLVEWAKRIPHFSELPLDDQVILLRAGWNELLIASFSHRSIAVKDGILLATGLHVHRNSAHSAGVGAIFDRVLTELVSKMRDMQMDKTELGCLRAIVLFNPDSKGLSNPAEVEALREKVYASLEAYCKHKYPEQPGRFAKLLLRLPALRSIGLKCLEHLFFFKLIGDTPIDTFLMEMLQAPHQAT [E461Q], the “effect of a mutation on the interaction” value is recorded as “decreasing interaction”.

The values above are taken from IntAct's records for PubMed 17641689.
